Measurements from PMC3970736, “Peptide transporter isoforms are discriminated by the fluorophore‐conjugated dipeptides β‐Ala‐ and d‐Ala‐Lys‐N‐7‐amino‐4‐methylcoumarin‐3‐acetic acid” (Physiological Reports, 2013).

How the values were obtained:
Assay in all cases: two-electrode voltage clamp, Xenopus oocytes, Michaelis-Menten fit of transport current
[1] = substrate: NCC(=O)N[C@@H](CCC(N)=O)C(=O)O; assay type: cell-based, Caenorhabditis elegans; conditions: pH 6.5, -60 mV, apparent transport affinity, GQ Km values 'in part published previously'
From the text: (§1) two-electrode voltage clamp, Xenopus oocytes, Michaelis-Menten fit of transport current on cePEPT1

[2] = substrate: Cc1c(CC(=O)NCCCC[C@H](NC(=O)CCN)C(=O)O)c(=O)oc2cc(N)ccc12; assay type: cell-based, Caenorhabditis elegans; conditions: pH 6.5, -60 mV, 0.5-4 mmol/L range, apparent transport affinity
From the text: as §1

[3] = substrate: NCC(=O)N[C@@H](CCC(N)=O)C(=O)O; assay type: cell-based, Danio rerio; conditions: pH 6.5, -160 mV, apparent transport affinity, GQ Km values 'in part published previously'
From the text: (§2) two-electrode voltage clamp, Xenopus oocytes, Michaelis-Menten fit of transport current on zfPEPT2

[4] = substrate: Cc1c(CC(=O)NCCCC[C@H](NC(=O)CCN)C(=O)O)c(=O)oc2cc(N)ccc12; assay type: cell-based, Danio rerio; conditions: pH 6.5, -160 mV, 0.05-2 mmol/L range, apparent transport affinity
From the text: as §2

[5] = substrate: NCC(=O)N[C@@H](CCC(N)=O)C(=O)O; assay type: cell-based, Oryctolagus cuniculus; conditions: pH 6.5, -160 mV, apparent transport affinity, GQ Km values 'in part published previously'
From the text: (§3) two-electrode voltage clamp, Xenopus oocytes, Michaelis-Menten fit of transport current on rPEPT2

[6] = substrate: Cc1c(CC(=O)NCCCC[C@H](NC(=O)CCN)C(=O)O)c(=O)oc2cc(N)ccc12; assay type: cell-based, Oryctolagus cuniculus; conditions: pH 6.5, -160 mV, 0.05-2 mmol/L range, apparent transport affinity
From the text: as §3

B1: cePEPT1 (Caenorhabditis elegans) (protein)
chain: MGYSESRSESVSSKGKTSYGHELETVPLPEKKIYTTWPDMIRHWPKTTLCIVSNEFCERFSYYGMRTVLTFYLLNVLKFTDSQSTIFFNGFTVLCYTTPLLGSIVADGYIGKFWTIFSVSILYAIGQVVLALASTKNFQSSVHPWMDLSGLLIIAFGTGGIKPCVSAFGGDQFELGQERMLSLFFSMFYFSINAGSMISTFISPIFRSQPCLGQDSCYPMAFGIPAILMIVATLVFMGGSFWYKKNPPKDNVFGEVSRLMFRAVGNKMKSGSTPKEHWLLHYLTTHDCALDAKCLELQAEKRNKNLCQKKKFIDDVRSLLRVLVMFLPVPMFWALYDQQGSVWLIQAIQMDCRLSDTLLLLPDQMQTLNAVLILLFIPLFQVIIYPVAAKCVRLTPLRKMVTGGLLASLAFLITGFVQLQVNTTLPTLPEEGEASISFWNQFETDCTITVMSGIHKRVLPHDKYLHEDKKNKSGIYNLFTTKSPAKGNGDWTLTYDLSYDGACGDTSKLEKTVKVTAKSKKIIYVGVGSFGYYQNTANTDKPTDGTGEFSMGIVTVFNSSYGGNFAMCRQNTSDFDVNHPCNPRHPADFYFWETDYNSHTDDRDQNATITGSLSSQPAVTYKQKSVKPGYWQLYYLLNTPKDVDRQTYNKTATLVAPTNYGFHRVKQGGVFIYALTGTYENPKIHELQIVQSNSVSILWQIPQIVVITAAEILFSITGYEFAYSQSAPSMKALVQALWLLTTAAGDSIIVVITILNLFENMAVEFFVYAAAMFVVIAIFALLSIFYYTYNYYTTDEEDGEIGVDDEEEIEDHNPRYSIDNKGFHPDEKDTFDMHF
notes: full-length cRNA expressed in Xenopus laevis oocytes
Km [1]: 7450 ± 610 µM | Km [2]: 4640 ± 1670 µM

B2: zfPEPT2 (Danio rerio) (protein)
chain: MGKMKDKDVDAEKYEKAQRSPKLCGTNYPVSIAFIVVNEFCERFSYYGMKAVLTLYFMNYLHWDKNLSTAIYHAFSGLCYFTPLLGALIADSWLGKFKTIIYLSIVYVIGHVVKSVGAIPDVGDSTVHIALSMVGLGLIALGTGGIKPCVAAFGGDQFDEDNIDERRKFFSIFYMSINAGSVLSTIITPILRGDVQCFGGDCYALAFGVPAALMVIALVVFISGSGLYKKSPPEGNVLVRVCKCIGFAISNRWTNSKKSPKRSHWLDWAEEKYSKRLIQEIKMVCRVLVLYIPLPMFWALFDQQGSRWTLQATRMNMDFGGGFIIKPDQMQMLNALLILVFIPIFDMGIYPLVGLCRIKLTPLKKMATGMILAALAFCAATAVEVYVIKTVVEPPPAKESLVQVYNLMDSDVTVQFPAHNVFSEPLKPYEEPSGYSSLPLTGESQLQNVVVSHNGMNYQCRLTFTERMAYSLLLHPTAQHNGSVCNLVKDHITKSETGAAYIRFINTHTENINVTVGTEEVHASANYGISRNISVPRGEYNKAVCVTDTKEYEINLGLLDFGAFYTVILSEAGNNLAVKKMEDIQANNIHIGWQIPQYVFLTAGEVMFSITGLEFSYSQAPASMKSVLQAGWLMTVAFGNVIVLIVAEGAGMEQWVEFLLFAALLVAVSIIFSIMAYFYTYVDPDQLDKLFKEDGDGGKVESSKKDELSLGDMPKQTKM
notes: as for B1
Km [3]: 79 ± 12 µM | Km [4]: 296 ± 26 µM

B3: rPEPT2 (Oryctolagus cuniculus) (protein)
chain: MNPFQQNESKETLFSPVSTEETPPRLSSPAKKTPPKICGSNYPLSIAFIVVNEFCERFSYYGMKAVLTLYFLYFLHWNEDTSTSVYHAFSSLCYFTPILGAAIADSWLGKFKTIIYLSLVNVLGHVIKSLSAFPILGGKVVHTVLSLVGLCLIALGTGGIKPCVAAFGGDQFEEKHAEERTRYFSGFYLAINAGSLISTFITPMLRGDVQCFGEDCYALAFGVPGLLMVIALVVFAMGSKMYKKPPPEGNIVAQVVKCIWFAISNRFKNRSEDIPKRQHWLDWAAEKYPKQLIMDVKTLTRVLFLYIPLPMFWALLDQQGSRWTLQATKMNGNLGFFVLQPDQMQVLNPLLVLIFIPLFDLVIYRLISKCGINFTSLRKMAVGMVLACLAFAAAATVEIKINEMAPPQPGSQEILLQVLNLADDEVKLTVLGNNNNSLLADSIKSFQKTPHYSKIHLNTKSQDFYFHLKYHNLSIYTEHSVEERNWYSLIIREDGKSISSIMVKDMENETTYGMTAIRFINTLQENVNISLGTDISLNVGENYGVSAYRTVQRGEYPAVHCKTEDKDFSLNLGLLDFGASYLFVITNSTKQGLQAWKMEDIPANKVSIAWQLPQYALVTAGEVMFSVTGLEFSYSQAPSSMKSVLQAAWLLTVAIGNIIVLVVAQFSGLVQWAEFVLFSCLLLVVCLIFSIMGYYYIPIKSEDIQGPEDKQIPHMQGNMINLETKKTKL
notes: full-length (729 residues) cRNA expressed in Xenopus laevis oocytes
Km [5]: 150 ± 33 µM | Km [6]: 290 ± 27 µM
